Measured values reported in patent publication US20160176924A1, “MODIFIED PEPTIDES AS POTENT INHIBITORS OF THE PSD-95/NMDA RECEPTOR INTERACTION” (priority 2008, published 2016).

Experiments:
Assay in all cases: FP competition, fluorescent NR2B probe
[1] = biological target: HIS-PDZ2 protein (PSD-95 PDZ2, residues 155-249, with tag …) (human) (UniProt P78352)
[2] = biological target: HIS-PDZ1 protein (PSD-95 PDZ1, residues 61-151, with tag …) (human) (UniProt P78352)
[3] = biological target: HIS-PDZ1-2 protein (PSD-95 PDZ1-2 tandem, residues 61-249, with tag …) (human) (UniProt P78352)

Q: How did the fold impairment of affinity relative to peptide 1 [1] turn out when “ESDV (8) with D-Glu instead of L-Glu (peptide)” was run?
A: The fold impairment of affinity relative to peptide 1 was over 25 fold.

Q: And the fold impairment of affinity relative to peptide 1 [2]?
A: The fold impairment of affinity relative to peptide 1 was over 25 fold.

Q: How did the fold increase in Ki compared to peptide 1 [1] turn out when SDV (9) (peptide) was run?
A: Its fold increase in Ki compared to peptide 1 is over 30 fold.

Q: And the fold increase in Ki compared to peptide 1 [2]?
A: The fold increase in Ki compared to peptide 1 was over 20 fold.

Q: Which results are given for TAV (49) (peptide)?
A: Ki [1]: 37 µM; Ki [2]: 42 µM

Q: With Tat-NR2B (3) (peptide) as the substance, how does the Ki [3] read?
A: The Ki was 9.8 µM.

Q: And the Ki [1]?
A: Its Ki is 4.4 µM.

Q: And the Ki [2]?
A: Its Ki is 14 µM.
